Key:
Type in all cases: in vivo
Balb/C mice [1] = assay: Zymosan-induced ear swelling in an inflammatory mouse model (Example 1); conditions: daily gavage 0.1 mg lactoferrin and/or 50 mg glycine, versus non-supplemented mice
Experimental: Balb/C mice (8 weeks of age, Charles River, Maastricht, The Netherlands) were randomly assigned two control and three test groups and supplemented daily for three days with 0.1 mg lactoferrin (DMV, Veghel, The Netherlands), 50 mg glycine (Sigma, Zwijndrecht, The Netherlands) or a combination of both components (test groups 3, 4 and 5 respectively) or vehicle (control groups 1 and 2) was administered by gavage. At day two of the supplementation ear thickness was measured using a micrometer (Mitutoyo Digimatic, Veenendaal, The Netherlands) Subsequently 25 μl 0.5% zymosan (Sigma) in PBS (group 2-5) or vehicle (group 1) was injected subcutaneously in both ears. Ear thickness was measured 3, 6 and 24 hours (example 1) after injection after which the animals were sacrificed.
In mice injected in the ear with zymosan, lactoferrin (LF) and glycine (Gly) supplemented mice show a highest decrease in ear swelling when compared to non-supplemented mice, see Table 1. A clear synergistic effect of LF and Gly is observed.

TNF-α producing cells = assay: Ex-vivo ELISpot of TNF-α producing spleen cells from supplemented mice with zymosan-induced ear inflammation (Example 2); conditions: 1 μg/ml LPS, after three days of oral supplementation
Experimental: The spleen was removed and pushed through a cell strainer. Red blood cell lysis was performed in 5 ml of could lysis buffer (4.15 g NH4Cl, 0.5 g KHCO3 and 18.6 mg Na2EDTA in 1 liter water at pH 7,3) for 5 minutes. Cells were washed twice in could RPMI (Invitrogen, Merelbeke, Belgium) and after centrifugation diluted to a concentration of 1.10^7 cells/ml. TNF-α producing cells were detected by ELISpot assay in the absence or presence of 1 μg/ml lipopolysaccharide (Sigma) (example 2).
Spleen cells were collected from mice with a zymosan-induced inflammation in the ear after three days of oral supplementation with water (=control), lactoferrin (LF), glycine or a combination of LF and glycine. The number of TNF-α producing cells was determined using an ELISpot assay. LF and glycine inhibit the LPS stimulated number of TNF producing cells by 92% and 97% respectively (back to not zymosan treated control levels). The combination of glycine and lactoferrin inhibited the number of TNF-α positive cells 50% below the […] injected control. This unexpected high rate of inhibition makes the combination of glycine with lactoferrin an excellent choice for the treatment of inflammatory diseases.

Balb/C mice [2] = assay: Dose response of lactoferrin in zymosan-induced ear swelling mouse model (Example 3)

B1: lactoferrin (protein, UniProt P24627 20-708, looked up)
Lactotransferrin: APRKNVRWCTISQPEWFKCRRWQWRMKKLGAPSITCVRRAFALECIRAIAEKKADAVTLDGGMVFEAGRDPYKLRPVAAEIYGTKESPQTHYYAVAVVKKGSNFQLDQLQGRKSCHTGLGRSAGWIIPMGILRPYLSWTESLEPLQGAVAKFFSASCVPCIDRQAYPNLCQLCKGEGENQCACSSREPYFGYSGAFKCLQDGAGDVAFVKETTVFENLPEKADRDQYELLCLNNSRAPVDAFKECHLAQVPSHAVVARSVDGKEDLIWKLLSKAQEKFGKNKSRSFQLFGSPPGQRDLLFKDSALGFLRIPSKVDSALYLGSRYLTTLKNLRETAEEVKARYTRVVWCAVGPEEQKKCQQWSQQSGQNVTCATASTTDDCIVLVLKGEADALNLDGGYIYTAGKCGLVPVLAENRKSSKHSSLDCVLRPTEGYLAVAVVKKANEGLTWNSLKDKKSCHTAVDRTAGWNIPMGLIVNQTGSCAFDEFFSQSCAPGADPKSRLCALCAGDDQGLDKCVPNSKEKYYGYTGAFRCLAEDVGDVAFVKNDTVWENTNGESTADWAKNLNREDFRLLCLDGTRKPVTEAQSCHLAVAPNHAVVSRSDRAAHVKQVLLHQQALFGKNGKNCPDKFCLFKSETKNLLFNDNTECLAKLGGRPTYEEYLGTEYVTAIANLKKCSTSPLLEACAFLTR
notes: globular multifunctional protein of the transferrin family (DMV, Veghel)
Decrease in ear swelling (Balb/C mice [1]; 3 hrs after zymosan injection in ears): 39 ± 12 | Decrease in ear swelling (Balb/C mice [1]; 6 hrs after zymosan injection in ears): 53 ± 17 | Inhibition of the LPS stimulated number of TNF producing cells (TNF-α producing cells): 92% | swelling (Balb/C mice [2]; 0.1 mg LF daily by gavage, time 1 hr): 78 | swelling (Balb/C mice [2]; 0.1 mg LF daily by gavage, time 2 hr): 108 | swelling (Balb/C mice [2]; 0.1 mg LF daily by gavage, time 4 hr): 109 | swelling (Balb/C mice [2]; 1 mg LF daily by gavage, time 1 hr): 73 | swelling (Balb/C mice [2]; 1 mg LF daily by gavage, time 2 hr): 105 | swelling (Balb/C mice [2]; 1 mg LF daily by gavage, time 4 hr): 121 | swelling (Balb/C mice [2]; 5 mg LF daily by gavage, time 1 hr): 99 | swelling (Balb/C mice [2]; 5 mg LF daily by gavage, time 2 hr): 153 | swelling (Balb/C mice [2]; 5 mg LF daily by gavage, time 4 hr): 204 | Optimal dose (Balb/C mice [2]; mouse, daily gavage, higher than 0): less than 5 mg

— patent publication US20100215631A1, “ANTI-INFLAMMATORY COMPOSITION COMPRISING GLYCINE AND LACTOFERRIN AND THE USE THEREOF” (priority 2006, published 2010)
